{
  "source": "paper PMC2755895",
  "about": "(The Journal of Biological Chemistry, 2009)",
  "key": {"PC4CTD": {"target": "PC4CTD (Homo sapiens, UniProt P53999)", "test": "Fluorescence titration of p53TAD peptides", "format": "binding", "details": "in words"}, "[1]": {"system": "N-terminal domain of MDM2", "details": "cited from earlier work"}, "subdomains of p300": {"system": "subdomains of p300", "details": "cited from earlier work"}, "[2]": {"target": "mutation of single hydrophobic residues to alanine (p53N peptides)"}, "[3]": {"target": "QS2 W53Q/F54S p53N-(35–57) (UniProt P04637)", "test": "fluorescence polarisation"}, "[4]": {"target": "hDp53N-(10–57)-aspartic acid mimic (UniProt P04637)", "test": "fluorescence polarisation"}},
  "note": "No end group written: not given here.",
  "data": [
    {"substance": "D41K/D42K/D48K/D49K/E51K p53N-(35–57) (LPSQAMKKLMLSPKKIKQWFTED-{K(methoxycoumarin)})", "values": [
      {"measurement": "quantifiability of binding to PC4CTD", "setting": "PC4CTD", "value": "no quantifiable binding"}
    ]},
    {"substance": "TAD1: p53 transactivation subdomain TAD1-(1–40)", "values": [
      {"measurement": "interaction with N-terminal domain of MDM2", "setting": "[1]", "value": "very tight"},
      {"measurement": "binding to p300 subdomains", "setting": "subdomains of p300", "value": "bind only weakly"}
    ]},
    {"substance": "PC4 C-terminal DNA-binding domain, PC4CTD-(61–127) (from UniProt P53999 61-127) (domain or fragment)", "values": [
      {"measurement": "Kd", "setting": "[2]", "value": "14 to 16", "unit": "µM"},
      {"measurement": "Kd", "setting": "[3]", "value": 20, "unit": "µM"},
      {"measurement": "Kd", "setting": "[4]", "value": 5, "unit": "µM"}
    ]},
    {"substance": "p53 N-terminal transactivation domain, TAD-(1–93) (from UniProt P04637 1-93) (domain or fragment)", "values": [
      {"measurement": "Kd", "setting": "p53 DNA-binding domain", "value": "> 100", "unit": "µM"}
    ]}
  ]
}
